Measured values: publication PMC9482650, “Quantitative fragmentomics allow affinity mapping of interactomes” (Nature Communications, 2022)

B1: WWTR1, Q9GZV5 (peptide)
chain: NKSEPFLTWL
B2: CLDN8, P56748 (peptide)
chain: PSVYSRSQYV
B3: MCC, P23508 (peptide)
chain: SRPHTNETSL
B4: FKBP4, Q02790 (peptide)
chain: GSQSQVETEA
B5: SIPA1, Q96FS4 (peptide)
chain: QLGSPTADLA
B6: GYPC, P04921 (peptide)
chain: GDSSRKEYFI

target: AHNAK1, Q09666; assay: holdup assay; parameters: key: below the threshold = too weak to quantify, mostly under pKd 3.1 to 4; conditions: plain residues with an end cap or a label only (N-terminal biotin on a linker: ado-ado)
Sequence (Q09666 4-100): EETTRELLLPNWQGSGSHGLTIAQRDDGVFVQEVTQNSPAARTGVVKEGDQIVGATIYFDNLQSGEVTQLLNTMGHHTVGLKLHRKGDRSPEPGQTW

Row | Binder | pKd
1 | B1 | below the threshold
2 | B2 | below the threshold
3 | B3 | below the threshold
4 | B4 | below the threshold
5 | B5 | below the threshold
6 | B6 | below the threshold

target: T1, APBA2_1, Q99767; assay: holdup assay; parameters: key: below the threshold = too weak to quantify, mostly under pKd 3.1 to 4; conditions: plain residues with an end cap or a label only (N-terminal biotin on a linker: ado-ado)
T1 sequence (Q99767 563-664, limits assumed, looked up): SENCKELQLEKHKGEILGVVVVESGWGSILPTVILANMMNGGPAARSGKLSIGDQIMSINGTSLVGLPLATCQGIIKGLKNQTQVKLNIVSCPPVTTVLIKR

Row | Binder | pKd
7 | B1 | below the threshold
8 | B2 | below the threshold
9 | B3 | below the threshold
10 | B4 | below the threshold
11 | B5 | below the threshold
12 | B6 | 3.55

target: T2, APBA2_2, Q99767; assay: holdup assay; parameters: key: below the threshold = too weak to quantify, mostly under pKd 3.1 to 4; conditions: plain residues with an end cap or a label only (N-terminal biotin on a linker: ado-ado)
T2 sequence (Q99767 654-744, limits assumed, looked up): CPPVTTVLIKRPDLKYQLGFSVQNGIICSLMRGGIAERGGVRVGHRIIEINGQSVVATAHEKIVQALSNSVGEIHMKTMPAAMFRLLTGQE

Row | Binder | pKd
13 | B1 | below the threshold
14 | B2 | below the threshold
15 | B3 | below the threshold
16 | B4 | below the threshold
17 | B5 | below the threshold
18 | B6 | below the threshold

target: ARHGEF12, Q9NZN5-2; assay: holdup assay; parameters: key: below the threshold = too weak to quantify, mostly under pKd 3.1 to 4; conditions: plain residues with an end cap or a label only (N-terminal biotin on a linker: ado-ado)
Sequence (Q9NZN5 other isoform, or with tags, fused parts or gaps): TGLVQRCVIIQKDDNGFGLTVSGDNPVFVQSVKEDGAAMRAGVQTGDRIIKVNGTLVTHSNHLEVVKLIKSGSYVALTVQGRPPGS

Row | Binder | pKd
19 | B1 | 4.95
20 | B2 | 4.19
21 | B3 | 4.68
22 | B4 | below the threshold
23 | B5 | below the threshold
24 | B6 | below the threshold

target: T3, CARD11, Q9BXL7; assay: holdup assay; parameters: key: below the threshold = too weak to quantify, mostly under pKd 3.1 to 4; conditions: plain residues with an end cap or a label only (N-terminal biotin on a linker: ado-ado)
T3 sequence (Q9BXL7 662-765, limits assumed, looked up): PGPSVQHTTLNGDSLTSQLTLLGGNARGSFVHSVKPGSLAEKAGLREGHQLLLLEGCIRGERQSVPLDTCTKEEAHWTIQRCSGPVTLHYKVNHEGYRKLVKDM

Row | Binder | pKd
25 | B1 | below the threshold
26 | B2 | below the threshold
27 | B3 | below the threshold
28 | B4 | below the threshold
29 | B5 | below the threshold
30 | B6 | below the threshold

target: T4, DVL3, Q92997; assay: holdup assay; parameters: key: below the threshold = too weak to quantify, mostly under pKd 3.1 to 4; conditions: plain residues with an end cap or a label only (N-terminal biotin on a linker: ado-ado)
T4 sequence (Q92997 244-331, limits assumed, looked up): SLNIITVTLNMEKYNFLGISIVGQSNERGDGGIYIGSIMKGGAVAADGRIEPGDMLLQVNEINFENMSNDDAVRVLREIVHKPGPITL

Row | Binder | pKd
31 | B1 | 4.54
32 | B2 | 3.63
33 | B3 | below the threshold
34 | B4 | below the threshold
35 | B5 | below the threshold
36 | B6 | 4.34

target: T5, FRMPD1, Q5SYB0; assay: holdup assay; parameters: key: below the threshold = too weak to quantify, mostly under pKd 3.1 to 4; conditions: plain residues with an end cap or a label only (N-terminal biotin on a linker: ado-ado)
T5 sequence (Q5SYB0 52-145, limits assumed, looked up): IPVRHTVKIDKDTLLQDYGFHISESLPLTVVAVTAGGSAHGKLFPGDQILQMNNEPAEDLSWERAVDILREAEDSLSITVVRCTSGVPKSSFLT

Row | Binder | pKd
37 | B1 | below the threshold
38 | B2 | below the threshold
39 | B3 | below the threshold
40 | B4 | below the threshold
41 | B5 | below the threshold
42 | B6 | below the threshold

target: T6, GRIP1_7, Q9Y3R0; assay: holdup assay; parameters: key: below the threshold = too weak to quantify, mostly under pKd 3.1 to 4; conditions: plain residues with an end cap or a label only (N-terminal biotin on a linker: ado-ado)
T6 sequence (Q9Y3R0 999-1096, limits assumed, looked up): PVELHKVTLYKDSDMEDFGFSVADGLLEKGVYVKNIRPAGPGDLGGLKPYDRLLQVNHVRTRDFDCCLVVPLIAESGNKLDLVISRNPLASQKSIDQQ

Row | Binder | pKd
43 | B1 | below the threshold
44 | B2 | below the threshold
45 | B3 | below the threshold
46 | B4 | below the threshold
47 | B5 | below the threshold
48 | B6 | 3.76

target: GRIP2_3, Q9C0E4; assay: holdup assay; parameters: key: below the threshold = too weak to quantify, mostly under pKd 3.1 to 4; conditions: plain residues with an end cap or a label only (N-terminal biotin on a linker: ado-ado)
Sequence (Q9C0E4 238-339): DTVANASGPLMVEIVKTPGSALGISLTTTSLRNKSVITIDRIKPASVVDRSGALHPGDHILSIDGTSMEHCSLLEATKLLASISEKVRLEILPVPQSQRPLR

Row | Binder | pKd
49 | B1 | below the threshold
50 | B2 | below the threshold
51 | B3 | below the threshold
52 | B4 | below the threshold
53 | B5 | below the threshold
54 | B6 | below the threshold

target: T7, HTRA4, P83105; assay: holdup assay; parameters: key: below the threshold = too weak to quantify, mostly under pKd 3.1 to 4; conditions: plain residues with an end cap or a label only (N-terminal biotin on a linker: ado-ado)
T7 sequence (P83105 378-476, limits assumed, looked up): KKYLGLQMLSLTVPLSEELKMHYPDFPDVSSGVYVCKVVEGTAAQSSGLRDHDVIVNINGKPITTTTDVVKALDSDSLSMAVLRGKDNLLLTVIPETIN

Row | Binder | pKd
55 | B1 | 4.6
56 | B2 | 4.23
57 | B3 | below the threshold
58 | B4 | below the threshold
59 | B5 | below the threshold
60 | B6 | below the threshold

target: Inadl_3, Q8NI35; assay: holdup assay; parameters: key: below the threshold = too weak to quantify, mostly under pKd 3.1 to 4; conditions: plain residues with an end cap or a label only (N-terminal biotin on a linker: ado-ado)
Sequence (Q8NI35 359-469): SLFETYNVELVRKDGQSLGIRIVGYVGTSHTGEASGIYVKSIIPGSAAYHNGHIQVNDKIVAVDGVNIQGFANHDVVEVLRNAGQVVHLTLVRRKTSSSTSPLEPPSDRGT

Row | Binder | pKd
61 | B1 | 4.35
62 | B2 | below the threshold
63 | B3 | below the threshold
64 | B4 | below the threshold
65 | B5 | below the threshold
66 | B6 | 4.2

target: LIMK2, P53671; assay: holdup assay; parameters: key: below the threshold = too weak to quantify, mostly under pKd 3.1 to 4; conditions: plain residues with an end cap or a label only (N-terminal biotin on a linker: ado-ado)
Sequence (P53671 143-248): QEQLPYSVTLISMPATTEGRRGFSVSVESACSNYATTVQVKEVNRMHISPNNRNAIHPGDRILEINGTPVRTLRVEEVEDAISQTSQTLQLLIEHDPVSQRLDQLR

Row | Binder | pKd
67 | B1 | below the threshold
68 | B2 | below the threshold
69 | B3 | below the threshold
70 | B4 | below the threshold
71 | B5 | below the threshold
72 | B6 | below the threshold

target: T8, LNX2_2, Q8N448; assay: holdup assay; parameters: key: below the threshold = too weak to quantify, mostly under pKd 3.1 to 4; conditions: plain residues with an end cap or a label only (N-terminal biotin on a linker: ado-ado)
T8 sequence (Q8N448 334-432, limits assumed, looked up): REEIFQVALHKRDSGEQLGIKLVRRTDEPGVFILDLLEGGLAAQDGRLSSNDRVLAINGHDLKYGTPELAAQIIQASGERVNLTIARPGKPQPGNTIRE

Row | Binder | pKd
73 | B1 | 4.44
74 | B2 | 4.66
75 | B3 | below the threshold
76 | B4 | below the threshold
77 | B5 | below the threshold
78 | B6 | below the threshold

target: MAST2, Q6P0Q8; assay: holdup assay; parameters: key: below the threshold = too weak to quantify, mostly under pKd 3.1 to 4; conditions: plain residues with an end cap or a label only (N-terminal biotin on a linker: ado-ado)
Sequence (Q6P0Q8 1099-1202): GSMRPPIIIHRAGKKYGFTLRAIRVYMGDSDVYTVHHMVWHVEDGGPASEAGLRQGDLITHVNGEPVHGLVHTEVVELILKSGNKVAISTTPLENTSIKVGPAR

Row | Binder | pKd
79 | B1 | 5.65
80 | B2 | below the threshold
81 | B3 | 5.66
82 | B4 | below the threshold
83 | B5 | below the threshold
84 | B6 | 3.68

target: T9, MPDZ_12, O75970; assay: holdup assay; parameters: key: below the threshold = too weak to quantify, mostly under pKd 3.1 to 4; conditions: plain residues with an end cap or a label only (N-terminal biotin on a linker: ado-ado)
T9 sequence (O75970 1857-1958, limits assumed, looked up): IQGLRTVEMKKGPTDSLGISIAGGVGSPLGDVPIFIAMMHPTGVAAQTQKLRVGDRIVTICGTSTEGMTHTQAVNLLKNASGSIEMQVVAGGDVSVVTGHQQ

Row | Binder | pKd
85 | B1 | 4.9
86 | B2 | below the threshold
87 | B3 | below the threshold
88 | B4 | 3.52
89 | B5 | 3.75
90 | B6 | 3.5

target: T10, MPP2, Q14168; assay: holdup assay; parameters: key: below the threshold = too weak to quantify, mostly under pKd 3.1 to 4; conditions: plain residues with an end cap or a label only (N-terminal biotin on a linker: ado-ado)
T10 sequence (Q14168 180-250, limits assumed, looked up): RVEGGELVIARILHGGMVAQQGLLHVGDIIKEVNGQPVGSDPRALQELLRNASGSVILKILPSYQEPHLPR

Row | Binder | pKd
91 | B1 | 3.62
92 | B2 | below the threshold
93 | B3 | below the threshold
94 | B4 | below the threshold
95 | B5 | below the threshold
96 | B6 | 4.36

target: T11, MPP7, Q5T2T1; assay: holdup assay; parameters: key: below the threshold = too weak to quantify, mostly under pKd 3.1 to 4; conditions: plain residues with an end cap or a label only (N-terminal biotin on a linker: ado-ado)
T11 sequence (Q5T2T1 134-230, limits assumed, looked up): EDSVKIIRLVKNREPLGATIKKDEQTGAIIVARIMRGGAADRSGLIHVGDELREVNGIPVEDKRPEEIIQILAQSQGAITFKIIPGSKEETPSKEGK

Row | Binder | pKd
97 | B1 | 3.8
98 | B2 | below the threshold
99 | B3 | below the threshold
100 | B4 | below the threshold
101 | B5 | below the threshold
102 | B6 | 5.18

target: T12, NHERF3_3, Q5T2W1; assay: holdup assay; parameters: key: below the threshold = too weak to quantify, mostly under pKd 3.1 to 4; conditions: plain residues with an end cap or a label only (N-terminal biotin on a linker: ado-ado)
T12 sequence (Q5T2W1 238-333, limits assumed, looked up): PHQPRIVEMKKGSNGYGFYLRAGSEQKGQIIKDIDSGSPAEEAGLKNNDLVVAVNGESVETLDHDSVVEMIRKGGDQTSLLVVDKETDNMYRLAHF

Row | Binder | pKd
103 | B1 | 4.12
104 | B2 | below the threshold
105 | B3 | below the threshold
106 | B4 | below the threshold
107 | B5 | below the threshold
108 | B6 | below the threshold

target: T13, PDZD7_3, Q9H5P4; assay: holdup assay; parameters: key: below the threshold = too weak to quantify, mostly under pKd 3.1 to 4; conditions: plain residues with an end cap or a label only (N-terminal biotin on a linker: ado-ado)
T13 sequence (Q9H5P4 857-944, limits assumed, looked up): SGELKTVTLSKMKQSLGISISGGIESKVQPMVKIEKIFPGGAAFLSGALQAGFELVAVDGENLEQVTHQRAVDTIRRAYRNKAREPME

Row | Binder | pKd
109 | B1 | 5.12
110 | B2 | below the threshold
111 | B3 | 4.36
112 | B4 | below the threshold
113 | B5 | below the threshold
114 | B6 | below the threshold

target: SCRIB_1, Q14160; assay: holdup assay; parameters: key: below the threshold = too weak to quantify, mostly under pKd 3.1 to 4; conditions: plain residues with an end cap or a label only (N-terminal biotin on a linker: ado-ado)
Sequence (Q14160 718-814): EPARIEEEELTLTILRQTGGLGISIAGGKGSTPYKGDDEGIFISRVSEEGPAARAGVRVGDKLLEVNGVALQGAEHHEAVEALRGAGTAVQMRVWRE

Row | Binder | pKd
115 | B1 | 4.63
116 | B2 | below the threshold
117 | B3 | 5.26
118 | B4 | below the threshold
119 | B5 | below the threshold
120 | B6 | below the threshold

target: T14, SNTG1, Q9NSN8; assay: holdup assay; parameters: key: below the threshold = too weak to quantify, mostly under pKd 3.1 to 4; conditions: plain residues with an end cap or a label only (N-terminal biotin on a linker: ado-ado)
T14 sequence (Q9NSN8 52-150, limits assumed, looked up): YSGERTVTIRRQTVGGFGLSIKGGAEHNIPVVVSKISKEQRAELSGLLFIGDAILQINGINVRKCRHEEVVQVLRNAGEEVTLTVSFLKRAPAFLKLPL

Row | Binder | pKd
121 | B1 | below the threshold
122 | B2 | below the threshold
123 | B3 | 3.93
124 | B4 | below the threshold
125 | B5 | below the threshold
126 | B6 | below the threshold

target: T15, TIAM2, Q8IVF5; assay: holdup assay; parameters: key: below the threshold = too weak to quantify, mostly under pKd 3.1 to 4; conditions: plain residues with an end cap or a label only (N-terminal biotin on a linker: ado-ado)
T15 sequence (Q8IVF5 885-986, limits assumed, looked up): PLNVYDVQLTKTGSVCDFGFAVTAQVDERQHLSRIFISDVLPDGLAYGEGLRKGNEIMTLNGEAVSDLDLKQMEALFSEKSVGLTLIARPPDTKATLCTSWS

Row | Binder | pKd
127 | B1 | 3.65
128 | B2 | 4.1
129 | B3 | below the threshold
130 | B4 | 4.04
131 | B5 | 4.24
132 | B6 | 4.23

target: TJP1_2, Q07157; assay: holdup assay; parameters: key: below the threshold = too weak to quantify, mostly under pKd 3.1 to 4; conditions: plain residues with an end cap or a label only (N-terminal biotin on a linker: ado-ado)
Sequence (Q07157 181-274): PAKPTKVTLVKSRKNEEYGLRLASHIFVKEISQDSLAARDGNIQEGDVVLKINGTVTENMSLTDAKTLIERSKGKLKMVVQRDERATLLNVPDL

Row | Binder | pKd
133 | B1 | below the threshold
134 | B2 | below the threshold
135 | B3 | below the threshold
136 | B4 | below the threshold
137 | B5 | below the threshold
138 | B6 | below the threshold
